US20240010735A1 (EISAI R AND D MANAGEMENT, published 2024)

Tests used:
[1] = molecular target: T1, mouse EphA4 extracellular region-SEAP-His protein (mouse); assay: SPR, Biacore T200; EphA4 extracellular region-SEAP-His captured on anti-His chip, antibody as analyte, 1:1 model
T1 construct: also called mouse EphA4 extracellular region-SEAP-His 10
Description: The binding affinity of antibody A against mouse and human EphA4 was determined by surface plasmon resonance (SPR method) employing Biacore T200 (GE Healthcare). First, anti-His antibodies (GE Healthcare, 28-9950-56) were fixed to a sensor chip CM5. Fixation was carried out by amine coupling method employing N-hydroxysuccinimide (NHS) and N-ethyl-N′-(3-dimethylaminopropyl) carbodiimide hydrochloride salt (EDC), and ethanolamine was employed for blocking (the sensor chip and reagents for fixation are all from GE Healthcare). This was diluted with the fixation buffer (10 mM sodium acetate, pH 4.5) to 3.5 μg/mL, and fixed onto the sensor chip according to the protocol accompanying Biacore T200. Mouse or human EphA4 extracellular region-SEAP-His 10 was diluted with the running buffer HBS-EP (GE Healthcare, BR-1001-88), and the solution was sent and captured onto the flow cell for 120 seconds (about 10 RU of captured amount). Subsequently, antibody A serially diluted to a range of 100, 50, 25, 12.5, 6.3, 3.2, 1.6, 0 nM with HBS-EP was added to the sensor chip for 120 seconds, and the binding reaction curve at the time of addition (binding phase, 120 seconds) and after completing the addition (dissociation phase, 600 seconds) was sequentially observed. Upon completion of each observation, 4 M MgCl₂ (60 seconds, Wako Pure Chemicals) was added to regenerate the sensor chip. Fitting analysis by 1:1 binding model employing the software accompanying the system, BIA evaluation software, was carried out against the binding reaction curve obtained, and the binding affinity (KD=kd/ka) against mouse and human EphA4 was calculated.
The binding affinity of antibody B obtained in Example 1 against human EphA4 was determined by surface plasmon resonance (SPR method) employing Biacore T200 (GE Healthcare). First, anti-His antibodies (GE Healthcare, 28-9950-56) were fixed to a sensor chip CMS. […]

[2] = molecular target: T2, mouse EphA2 extracellular region-Fc-His protein (mouse, UniProt Q03145 26-538); assay: ELISA: Fc-His proteins (1 nM) captured on anti-6-His antibody, antibody A 10 µg/mL with human IgG 100 µg/mL, HRP anti-mouse IgG, OD450 as % of mouse EphA4-Fc-His
T2 construct: extracellular domain; Cloned into a pcDNA 3.1 vector separately from the other mouse Eph receptors; not shown: Fc; histidine tag
Description: (§1) Rabbit anti-6-His antibodies (Bethyl Laboratories) were coated onto the wells of a 96-well plate (Nunc). After incubating at 4° C. overnight, the wells were blocked at room temperature for 1 hour by 1% Block Ace (DS Pharma Biomedical). After washing 3 times with 0.05% Tween 20/PBS (Thermo […]), each Eph receptor of mouse extracellular region-Fc-His protein (final concentration 1 nM) was seeded into each well, and incubated at room temperature for 1 hour. After washing 3 times, human IgG solution (100 μg/mL, Sigma) and antibody A (10 μg/mL) were supplemented to the wells, and incubated at room temperature for 1 hour. Horseradish peroxidase-labeled donkey anti-mouse IgG antibody (Jackson ImmunoResearch Laboratories) was added, and incubated at room temperature for 1 hour. After washing 3 times, TMBZ (3,3′,5,5′-tetramethylbenzidine, Sigma) solution was added to the wells, and upon confirmation of modest coloring, an equal amount of quenching solution (1 N H₂SO₄, Wako Pure Chemicals) was added to the wells, and absorbance at 450 nm was read by a microplate reader (PerkinElmer).

[3] = molecular target: T3, mouse EphB2 extracellular region-Fc-His protein (mouse; human, UniProt P54763 19-543); assay: as above
T3 construct: extracellular domain; not shown: Fc region of human IgG1; histidine tag
T3 sequence (looked up): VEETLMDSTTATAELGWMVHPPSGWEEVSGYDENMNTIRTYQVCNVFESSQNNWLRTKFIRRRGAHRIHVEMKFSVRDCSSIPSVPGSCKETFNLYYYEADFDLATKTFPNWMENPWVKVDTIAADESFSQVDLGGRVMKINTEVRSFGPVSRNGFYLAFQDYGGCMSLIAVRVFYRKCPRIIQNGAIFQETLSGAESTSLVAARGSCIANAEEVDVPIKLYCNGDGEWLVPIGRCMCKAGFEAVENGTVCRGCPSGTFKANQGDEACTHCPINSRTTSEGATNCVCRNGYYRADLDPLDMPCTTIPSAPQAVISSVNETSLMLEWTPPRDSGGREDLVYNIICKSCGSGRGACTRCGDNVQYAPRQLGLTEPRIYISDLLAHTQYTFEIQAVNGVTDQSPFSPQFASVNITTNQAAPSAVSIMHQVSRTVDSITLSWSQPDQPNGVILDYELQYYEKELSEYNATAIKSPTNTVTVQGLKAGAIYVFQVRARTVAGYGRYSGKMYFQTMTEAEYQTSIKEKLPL
Description: as §1

[4] = molecular target: T4, mouse EphB3 extracellular region-Fc-His protein (mouse; human, UniProt P54754 30-554); assay: as above
T4 construct: extracellular domain; not shown: Fc region of human IgG1; histidine tag
T4 sequence (looked up): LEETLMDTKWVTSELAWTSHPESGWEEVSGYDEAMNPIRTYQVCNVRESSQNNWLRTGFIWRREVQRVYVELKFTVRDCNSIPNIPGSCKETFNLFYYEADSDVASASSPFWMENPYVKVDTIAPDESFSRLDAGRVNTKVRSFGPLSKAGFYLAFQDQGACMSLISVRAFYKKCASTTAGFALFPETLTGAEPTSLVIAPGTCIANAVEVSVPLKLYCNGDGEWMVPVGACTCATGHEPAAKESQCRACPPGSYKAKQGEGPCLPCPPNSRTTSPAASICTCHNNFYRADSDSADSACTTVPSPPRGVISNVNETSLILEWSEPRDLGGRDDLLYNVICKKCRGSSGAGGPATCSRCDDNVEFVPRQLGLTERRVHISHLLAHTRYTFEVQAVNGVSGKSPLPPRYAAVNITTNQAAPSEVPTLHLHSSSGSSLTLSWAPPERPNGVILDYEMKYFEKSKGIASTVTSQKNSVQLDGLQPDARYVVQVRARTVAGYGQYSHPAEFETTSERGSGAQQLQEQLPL
Description: as §1

T1 sequence (chain, as listed by the source limits assumed): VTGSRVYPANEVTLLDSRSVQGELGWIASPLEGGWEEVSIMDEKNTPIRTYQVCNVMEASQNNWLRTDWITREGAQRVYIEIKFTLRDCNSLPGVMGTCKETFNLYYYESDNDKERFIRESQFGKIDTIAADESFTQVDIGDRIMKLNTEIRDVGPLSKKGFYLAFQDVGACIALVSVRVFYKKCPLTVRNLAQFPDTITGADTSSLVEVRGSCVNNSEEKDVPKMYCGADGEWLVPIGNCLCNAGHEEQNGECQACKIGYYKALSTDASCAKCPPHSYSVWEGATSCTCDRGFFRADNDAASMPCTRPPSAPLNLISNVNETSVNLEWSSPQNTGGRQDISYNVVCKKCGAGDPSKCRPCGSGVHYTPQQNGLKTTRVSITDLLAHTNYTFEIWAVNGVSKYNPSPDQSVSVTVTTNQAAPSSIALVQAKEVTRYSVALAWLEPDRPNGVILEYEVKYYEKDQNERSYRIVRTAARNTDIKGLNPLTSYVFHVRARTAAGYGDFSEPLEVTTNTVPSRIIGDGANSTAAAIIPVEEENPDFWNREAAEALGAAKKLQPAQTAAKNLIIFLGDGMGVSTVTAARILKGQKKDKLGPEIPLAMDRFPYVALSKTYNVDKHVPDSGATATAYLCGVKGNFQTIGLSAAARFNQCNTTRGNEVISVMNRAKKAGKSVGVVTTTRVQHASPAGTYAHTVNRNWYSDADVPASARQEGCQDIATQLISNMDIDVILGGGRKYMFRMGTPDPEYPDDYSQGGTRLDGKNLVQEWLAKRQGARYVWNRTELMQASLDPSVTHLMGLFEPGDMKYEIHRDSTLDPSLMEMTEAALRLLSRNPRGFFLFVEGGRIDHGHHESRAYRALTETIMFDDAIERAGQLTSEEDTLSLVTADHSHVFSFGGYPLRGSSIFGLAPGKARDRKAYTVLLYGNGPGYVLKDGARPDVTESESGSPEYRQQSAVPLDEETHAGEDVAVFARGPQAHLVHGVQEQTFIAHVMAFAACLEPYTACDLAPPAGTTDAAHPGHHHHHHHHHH
T2 sequence (Q03145 26-538): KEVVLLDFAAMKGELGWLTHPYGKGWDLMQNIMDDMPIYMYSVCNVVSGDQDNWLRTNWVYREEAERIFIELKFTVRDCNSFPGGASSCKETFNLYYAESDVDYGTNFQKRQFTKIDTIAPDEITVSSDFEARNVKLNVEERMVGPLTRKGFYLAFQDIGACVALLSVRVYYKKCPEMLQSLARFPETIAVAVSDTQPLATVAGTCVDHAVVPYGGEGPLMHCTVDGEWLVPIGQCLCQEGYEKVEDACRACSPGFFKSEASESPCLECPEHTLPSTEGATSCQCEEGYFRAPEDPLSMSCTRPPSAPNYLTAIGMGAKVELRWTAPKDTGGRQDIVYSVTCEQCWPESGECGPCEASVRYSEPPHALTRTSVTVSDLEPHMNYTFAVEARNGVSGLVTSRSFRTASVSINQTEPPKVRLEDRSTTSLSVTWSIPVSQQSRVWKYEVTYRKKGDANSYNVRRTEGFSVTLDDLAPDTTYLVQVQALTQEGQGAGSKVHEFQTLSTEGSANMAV

B1: mouse anti-EphA4 monoclonal antibody (antibody A) (antibody, mouse IgG1, kappa, V domains shown)
VH: QVQLKQSGPSLVQPSQSLSITCTVSGFSLTRYGVHWVRQSPGKGLEWLGVIWRGGSTDYNAAFMSRLSITKDNSKSQVFFKMNSLQADDTAIYYCAKESLFGVYYDYGYYSMDYWGQGTSVTVSS
VL: DIQMTQSPSSLSASLGERVSLTCRASQEISGYLSWLQQKPDGTIKRLIYAASTLDSGVPKRFSGSRSGSDYSLTISSLESEDFADYYCLQYASYPLTFGAGTKLELKR
notes: purified from hybridoma supernatant
What does the source list for B1?
Kd [1]: 1.32 nM; binding result [2]: no binding (tested: 10 µg/mL); binding result [3]: no binding (tested: 10 µg/mL); binding result [4]: no binding (tested: 10 µg/mL)
